The source of these data is US20160009799A1 (ORDER MADE MEDICAL RESEARCH, published 2016).

Test [1] concerns the target T1, SLC6A6 (solute carrier family 6 (neurotransmitter transporter, taurine), member 6) on human colorectal cancer … (human, UniProt P31641 1-620).
T1 construct: Endogenous protein on ten colorectal cancer cell lines (Caco-2, COLO201, DLD-1, HCT15, HCT116, HT-29, LoVo, SW480, SW620, WiDr); also called native SLC6A6
T1 sequence: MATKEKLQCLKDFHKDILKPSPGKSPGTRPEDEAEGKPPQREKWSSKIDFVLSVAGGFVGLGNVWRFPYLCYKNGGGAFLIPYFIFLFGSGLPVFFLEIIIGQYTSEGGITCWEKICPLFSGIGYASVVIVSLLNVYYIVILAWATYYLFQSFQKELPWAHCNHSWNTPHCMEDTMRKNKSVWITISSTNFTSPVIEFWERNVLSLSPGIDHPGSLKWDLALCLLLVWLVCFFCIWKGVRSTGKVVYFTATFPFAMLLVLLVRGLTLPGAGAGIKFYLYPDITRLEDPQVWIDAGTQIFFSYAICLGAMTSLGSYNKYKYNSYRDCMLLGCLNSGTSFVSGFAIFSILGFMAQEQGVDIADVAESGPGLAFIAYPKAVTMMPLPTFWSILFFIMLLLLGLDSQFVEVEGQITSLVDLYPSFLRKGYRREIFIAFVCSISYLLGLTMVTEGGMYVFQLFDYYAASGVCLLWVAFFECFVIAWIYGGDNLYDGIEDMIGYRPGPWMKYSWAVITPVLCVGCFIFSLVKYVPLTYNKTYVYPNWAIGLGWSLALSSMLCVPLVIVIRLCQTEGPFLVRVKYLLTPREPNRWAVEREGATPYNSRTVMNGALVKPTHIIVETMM
The test can be described thus: flow cytometry on 10 colorectal cancer cell lines, antibody at 1 ug/mL. The procedure:
Ten lines of colorectal cancer cells were each cultured to reach 90% confluency. The cells of each line were washed twice with PBS, detached with a scraper and collected into a 1.5 mL tube. 4B9b and 5H12d antibodies were each added to give a final concentration of 1 μg/mL, followed by reaction for 60 minutes. After washing twice with PBS+2% FBS, AlexaFluor 488-labeled goat anti-mouse IgG (Invitrogen) was added as a 1/1000 dilution in PBS+2% FBS, followed by reaction for 30 minutes. After washing twice with PBS+2% PBS(FBS?), the cells were analyzed by Guava Flow Cytometry (Millipore).

Test [2] addresses T2, partial protein of the extracellular region of SLC6A6 (amino acid residues 143 to 216), His tag at the … (human, UniProt P31641 143-216).
T2 construct: also called SLC6A6 partial protein for screening; recombinant protein obtained in (6); not shown: His tag added to the C-terminal end (pET32 vector)
T2 sequence: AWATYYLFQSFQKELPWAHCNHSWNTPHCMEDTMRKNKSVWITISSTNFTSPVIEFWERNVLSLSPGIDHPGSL
The test can be described thus: ELISA on plate-bound recombinant SLC6A6 partial protein, antibody 0 to 40 ug/mL. The procedure: The recombinant protein obtained in (6) above (10 μg/ml) was dispensed in 100 μL volumes into MaxiSorp 96-well plates (Nunc) and adsorbed onto the plates at room temperature for 1 hour. After adsorption, each well was washed with TBS-T (25 mM Tris, 150 mM NaCl, 0.05% (v/v) Tween 20, pH 7.4) and charged with skimmed milk (GIBCO), which had been diluted at a concentration of 5% with TBS-T, to conduct blocking for 30 minutes at room temperature. After each well was washed three times with 200 μL TBS-T, […] ELISA plates in a volume of 100 μL per well, followed by reaction at room temperature for 1 hour. Each well was washed three times with […] TBS-T.
For use as a secondary antibody, anti-mouse IgG polyclonal antibody-HRP label (BETHYL) was diluted 5,000-fold with TBS-T. The above antibody dilution was added in a volume of 100 μL per well and reacted at room temperature for 30 minutes. Each well was washed three times with 200 μL TBS-T. Orthophenylenediamine (Sigma) was diluted with 50 mM carbonate-citrate buffer (pH 5.0) to give a final concentration of 0.5 mg/mL and mixed with 1/10,000 volumes of 35% (w/w) aqueous hydrogen peroxide (WAKO). […] The absorbance at 492 nm was measured with a plate reader (SpectraMax Plus 384, Molecular Devices) to analyze antibody titers, which were then used for selection of mice to be used for cell fusion. […]

B1: 4B9b antibody (produced by Mouse-Mouse hybridoma 4B9b, FERM BP-11413) (antibody, mouse IgM, V domains shown)
VH: QVKLQQSGAELMKPGASVKISCKATGYTFSRYWIEWVKQRPGHGLEWIGEILPGSGSTNYNEKFKGKATFTADTSSNTAYMQLSSLTSEDSAVYYCARGGFLGHYGFAYWGQGTLVTVSA
VL: DIQLTQSPTTMAASPGEKITITCSASSSISSNYLHWYQQKPGFSPKLLIYRTSNLASGVPARFSGSGSGTSYSLTIGTMEAEDVATYYCQQGSSIPYTFGGGTKLEIK
notes: also called anti-SLC6A6 antibody, 4B9b
As for B1, the binding result in test [1] is “binds”.

B2: mouse IgG1-converted anti-SLC6A6 antibody (4B9b) (antibody, V domains shown)
VH: QVKLQQSGAELMKPGASVKISCKATGYTFSRYWIEWVKQRPGHGLEWIGEILPGSGSTNYNEKFKGKATFTADTSSNTAYMQLSSLTSEDSAVYYCARGGFLGHYGFAYWGQGTLVTVSA
VL: DIQLTQSPTTMAASPGEKITITCSASSSISSNYLHWYQQKPGFSPKLLIYRTSNLASGVPARFSGSGSGTSYSLTIGTMEAEDVATYYCQQGSSIPYTFGGGTKLEIKR
notes: Expressed in Cos7 cells and purified on Protein G; also called mouse IgG-converted antibody; mouse IgG-chimerized antibody
As to B2, the binding result in test [2] is reported as “binds”.
